Consider 11 proteins from patent publication EP3196312B1, “EFFICIENT CONVERSION OF METHYLGLYOXAL INTO HYDROXYACETONE USING NOVEL ENZYMES AND APPLI CATIONS THEREOF” (Metabolic Explorer, priority 2016, dated 2017).

Holding throughout (assay): Methylglyoxal reductase kinetic parameters of purified enzyme (NAD(P)H consumption at 340 nm)
Substrate in series [1]: CC(=O)C=O
The class given is biochemical, Escherichia coli. To be noted: other: substrate methylglyoxal 0.1-40 mM, pH 7.5. The protocol:
(§1) Except for the strain 18, the proteins were purified from the crude cell-extract by affinity on a Profinity column (BIORAD, Bio-Scale Mini Profinity exact cartridge 5 ml) according to the protocol recommended by the manufacturer. The crude extract was loaded on a 5 ml Profinity exact cartridge equilibrated with 100 mM potassium phosphate pH 7.6. The column was washed with 10 column volumes of the same buffer and incubated 30min with 100 mM potassium phosphate pH 7.6, 100 mM fluoride at room temperature. The protein was eluted from the column with 2 column volumes of 100 mM potassium phosphate pH 7.6. The tag remained tightly bound to the resin and the purified protein was released. The fractions containing the protein were pooled, concentrated and loaded on a gel filtration column (Superdex 200 10/300 GL column, GE Healthcare) equilibrated with different storage buffers (Table 3). Protein concentration was measured using the Bradford protein assay.
Methylglyoxal reductase activity (MGR) was determined by measuring the consumption of NAD(P)H at 340 nm on a spectrophotometer at 30°C (λ340 = 6290 M^-1 cm^-1). The reaction mixture (1mL) containing assay buffer and purified enzyme was incubated for 5 min at 30°C. Then, 0.1-40 mM methylglyoxal was added to start the reaction. One unit of enzyme activity was defined as the amount of enzyme catalyzing the decrease of 1µmol of NAD(P)H per min. Kinetic parameters were determined with Sigmaplot.

Substrate in series [2]: CC(=O)C=O
The class given is biochemical, Bacillus subtilis. To be noted: other: substrate methylglyoxal 0.1-40 mM, cofactor NADPH, 20mM Hepes (pH7.5) 0.1mM ZnSO4, 30°C, pH 7.5. The protocol: as §1
(§2) Methylglyoxal reductase activity (MGR) was determined by measuring the consumption of NAD(P)H at 340 nm on a spectrophotometer at 30°C (λ340 = 6290 M^-1 cm^-1). The reaction mixture (1mL) containing assay buffer and purified enzyme was incubated for 5 min at 30°C. Then, 0.1-40 mM methylglyoxal was added to start the reaction. […] Kinetic parameters were determined with Sigmaplot.

Substrate in series [3]: CC(=O)C=O
The series is classed as biochemical, Hypocrea jecorina. To be noted: other: substrate methylglyoxal 0.1-40 mM, cofactor NADPH, 10mM sodium phosphate (pH 7), 30°C. The protocol: as §1, §2

Substrate in series [4]: CC(=O)C=O
The class given is biochemical, Dickeya zeae. To be noted: other: substrate methylglyoxal 0.1-40 mM, cofactor NADPH, 20mM Hepes (pH7.5), 30°C, pH 7.5. The protocol: as §1, §2

Substrate in series [5]: CC(=O)C=O
The class given is biochemical, Gluconobacter oxydans. To be noted: other: substrate methylglyoxal 0.1-40 mM, cofactor NADPH, 20mM Hepes (pH7.5), 30°C, pH 7.5. The protocol:
as §1, §2

Substrate in series [6]: CC(=O)C=O
The series is classed as biochemical, Klebsiella pneumoniae. The note with it: other: substrate methylglyoxal 0.1-40 mM, cofactor NADH, 50 mM Imidazole (pH7), 30°C, pH 7.0. Here is the method:
as §1, §2

Setting [7] is: cofactor NADPH, 20mM Hepes (pH7.5), 30°C.
Where [8] appears, read: cofactor NADH, 20mM Hepes (pH7.5) 0.1mM FeSO4, 30°C.

B1: Escherichia coli YeaE (Uncharacterized protein YeaE, Uniprot P76234), SEQ ID NO: 107 (Escherichia coli K-12) (protein)
chain: MQQKMIQFSGDVSLPAVGQGTWYMGEDASQRKTEVAALRAGIELGLTLIDTAEMYADGGAEKVVGEALTGLREKVFLVSKVYPWNAGGQKAINACEASLRRLNTDYLDLYLLHWSGSFAFEETVAAMEKLIAQGKIRRWGVSNLDYADMQELWQLPGGNQCATNQVLYHLGSRGIEYDLLPWCQQQQMPVMAYSPLAQAGRLRNGLLKNAVVNEIAHAHNISAAQVLLAWVISHQGVMAIPKAATIAHVQQNAAVLEVELSSAELAMLDKAYPAPKGKTALDMV
Broadly, the Km is the concentration of substrate that gives half-maximal velocity. As a reminder, the kcat/Km is the second-order rate constant that governs catalysis at low substrate concentration. Regarding B1, in series [1] (setting [7]), the Michaelis-Menten constant (Km) is given as 1.59 mM and the kcat/Km came to 0.91 mM⁻¹ s⁻¹.

B2: Escherichia coli YdhF (Oxidoreductase YdhF, Uniprot P76187), SEQ ID NO: 105 (Escherichia coli K-12) (protein)
chain: MVQRITIAPQGPEFSRFVMGYWRLMDWNMSARQLVSFIEEHLDLGVTTVDHADIYGGYQCEAAFGEALKLAPHLRERMEIVSKCGIATTAREENVIGHYITDRDHIIKSAEQSLINLATDHLDLLLIHRPDPLMDADEVADAFKHLHQSGKVRHFGVSNFTPAQFALLQSRLPFTLATNQVEISPVHQPLLLDGTLDQLQQLRVRPMAWSCLGGGRLFNDDYFQPLRDELAVVAEELNAGSIEQVVYAWVLRLPSQPLPIIGSGKIERVRAAVEAETLKMTRQQWFRIRKAALGYDVP
For the protein B2, in series [1] (setting [7]), the Km came out at 21.8 mM and the kcat/Km was 0.35 mM⁻¹ s⁻¹.

B3: Bacillus subtilis YhdN (general stress protein 69, Uniprot P80874), SEQ ID NO: 3 (Bacillus subtilis subsp. subtilis str. 168) (protein)
chain: MEYTSIADTGIEASRIGLGTWAIGGTMWGGTDEKTSIETIRAALDQGITLIDTAPAYGFGQSEEIVGKAIKEYGKRDQVILATKTALDWKNNQLFRHANRARIVEEVENSLKRLQTDYIDLYQVHWPDPLVPIEETAEVMKELYDAGKIRAIGVSNFSIEQMDTFRAVAPLHTIQPPYNLFEREMEESVLPYAKDNKITTLLYGSLCRGLLTGKMTEEYTFEGDDLRNHDPKFQKPRFKEYLSAVNQLDKLAKTRYGKSVIHLAVRWILDQPGADIALWGARKPGQLEALSEITGWTLNSEDQKDINTILENTISDPVGPEFMAPPTREEI
Take B3: in series [2], the Km amounted to 0.64 mM and the kcat/Km amounted to 5.92 mM⁻¹ s⁻¹.

B4: Escherichia coli YqhD (alcohol dehydrogenase, Uniprot Q46856), wild type, SEQ ID NO: 7 (Escherichia coli K-12) (protein)
chain: MNNFNLHTPTRILFGKGAIAGLREQIPHDARVLITYGGGSVKKTGVLDQVLDALKGMDVLEFGGIEPNPAYETLMNAVKLVREQKVTFLLAVGGGSVLDGTKFIAAAANYPENIDPWHILQTGGKEIKSAIPMGCVLTLPATGSESNAGAVISRKTTGDKQAFHSAHVQPVFAVLDPVYTYTLPPRQVANGVVDAFVHTVEQYVTKPVDAKIQDRFAEGILLTLIEDGPKALKEPENYDVRANVMWAATQALNGLIGAGVPQDWATHMLGHELTAMHGLDHAQTLAIVLPALWNEKRDTKRAKLLQYAERVWNITEGSDDERIDAAIAATRNFFEQLGVPTHLSDYGLDGSSIPALLKKLEEHGMTQLGENHDITLDVSRRIYEAAR
As for B4, in series [1] (cofactor NADPH, 20mM Hepes (pH7.5) 0.1mM ZnSO4, 30°C), the Km is given as 2.09 mM.

B5: Hypocrea jecorina Gld2 (Glycerol 2-dehydrogenase (NADP(+)), Uniprot Q0GYU4), SEQ ID NO: 109 (Trichoderma reesei) (protein)
chain: MASKTYTLNTGAKIPAVGFGTFANEGAKGETYAAVTKALDVGYRHLDCAWFYHNEDEVGDAVRDFLARRPDVKREDLFICTKVWNHLHEPEDVKWSAKNSCENLKVDYIDLFLVHWPIAAEKNSDRSVKLGPDGKYVINQALTENPEPTWRAMEELVESGLVKAIGVSNWTIPGLKKLLQIAKIKPAVNQIEIHPFLPNEELVAFCFENGILPEAYSPLGSQNQVPSTGERVRDNPTLKAVAERSGYSLAQILLAWGLKRGYVVLPKSSTPSRIESNFNIPELSDEDFEAIQQVAKGRHTRFVNMKDTFGYNVWPEEE
Turning to B5, in series [3], the Km amounted to 7.7 mM and the kcat/Km turned out to be 11.1 mM⁻¹ s⁻¹.

B6: Escherichia coli YahK (aldehyde reductase, Uniprot P75691), SEQ ID NO: 1 (Escherichia coli K-12) (protein)
chain: MKIKAVGAYSAKQPLEPMDITRREPGPNDVKIEIAYCGVCHSDLHQVRSEWAGTVYPCVPGHEIVGRVVAVGDQVEKYAPGDLVGVGCIVDSCKHCEECEDGLENYCDHMTGTYNSPTPDEPGHTLGGYSQQIVVHERYVLRIRHPQEQLAAVAPLLCAGITTYSPLRHWQAGPGKKVGVVGIGGLGHMGIKLAHAMGAHVVAFTTSEAKREAAKALGADEVVNSRNADEMAAHLKSFDFILNTVAAPHNLDDFTTLLKRDGTMTLVGAPATPHKSPEVFNLIMKRRAIAGSMIGGIPETQEMLDFCAEHGIVADIEMIRADQINEAYERMLRGDVKYRFVIDNRTLTD
Turning to B6, in series [1] (setting [7]), the Km is given as 1.41 mM and the kcat/Km came to 8.3 mM⁻¹ s⁻¹.

B7: Escherichia coli YiaY (Probable alcohol dehydrogenase, Uniprot P37686), SEQ ID NO: 111 (Escherichia coli K-12) (protein)
chain: MAASTFFIPSVNVIGADSLTDAMNMMADYGFTRTLIVTDNMLTKLGMAGDVQKALEERNIFSVIYDGTQPNPTTENVAAGLKLLKENNCDSVISLGGGSPHDCAKGIALVAANGGDIRDYEGVDRSAKPQLPMIAINTTAGTASEMTRFCIITDEARHIKMAIVDKHVTPLLSVNDSSLMIGMPKSLTAATGMDALTHAIEAYVSIAATPITDACALKAVTMIAENLPLAVEDGSNAKAREAMAYAQFLAGMAFNNASLGYVHAMAHQLGGFYNLPHGVCNAVLLPHVQVFNSKVAAARLRDCAAAMGVNVTGKNDAEGAEACINAIRELAKKVDIPAGLRDLNVKEEDFAVLATNALKDACGFTNPIQATHEEIVAIYRAAM
As for B7, in series [1] (setting [8]), the Km is 2.84 mM and the kcat/Km came to 0.34 mM⁻¹ s⁻¹.

B8: Dickeya zeae Adh3.2 (Group III alcohol dehydrogenase, Uniprot R4Z7U3), SEQ ID NO: 103 (Dickeya zeae) (protein)
chain: MQNFTLHTPTKILFGEGQIAALADQIPADARILITYGGGSIKKNGVFDQVINALKGRNVVEFSGIEPNPTYETLMKAVEIVRKENIDFLLAVGGGSVADGTKFIAAAVNYKAAEDPWHILQTWGAHVESAIPLGVVLTLPATGSESNSGAVITRKSTGDKQAFMNPLVCPRFAVLDPVVTYTLPERQIANGVVDAFVHTVEQYLTYPVDAKVQDRFAEGLLLTLIEEGPRALKEQHNYNVRANVMWSATMALNGLIGAGVPQDWSTHMLGHEITAMHGLDHAQTLAIVLPAMLNERRVQKREKLLQYAERVWNLRDGSDDQRIDGAIAATRAFFEQMGVPTRLSDYQLDGSSIPALVAKLEEHGMTALGENKDITLDISKRVYEAAR
On to B8, for which, in series [4], the Km came out at 6.7 mM and the kcat/Km amounted to 0.17 mM⁻¹ s⁻¹.

B9: Gluconobacter oxydans Gld (putative oxidoreductase, Uniprot Q5FQJ0), SEQ ID NO: 5 (Gluconobacter oxydans 621H) (protein)
chain: MASDTIRIPGIDTPLSRVALGTWAIGGWMWGGPDDDNGVRTIHAALDEGINLIDTAPVYGFGHSEEIVGRALAEKPNKAHVATKLGLHWVGEDEKNMKVFRDSRPARIRKEVEDSLRRLRVETIDLEQIHWPDDKTPIDESARELQKLHQDGKIRALGVSNFSPEQMDIFREVAPLATIQPPLNLFERTIEKDILPYAEKHNAVVLAYGALCRGLLTGKMNRDTTFPKDDLRSNDPKFQKPNFEKYLAAMDEFEKLAEKRGKSVMAFAVRWVLDQGPVIALWGARKPGQVSGVKDVFGWSLTDEEKKAVDDILARHVPNPIDPTFMAPPARD
Consider B9, for which, in series [5], the Km is recorded as 1.10 mM and the kcat/Km worked out at 8.74 mM⁻¹ s⁻¹.

B10: Escherichia coli YafB (2,5-diketo-D-gluconic acid reductase B, Uniprot P30863), SEQ ID NO: 99 (Escherichia coli K-12) (protein)
chain: MAIPAFGLGTFRLKDDVVISSVITALELGYRAIDTAQIYDNEAAVGQAIAESGVPRHELYITTKIWIENLSKDKLIPSLKESLQKLRTDYVDLTLIHWPSPNDEVSVEEFMQALLEAKKQGLTREIGISNFTIPLMEKAIAAVGAENIATNQIELSPYLQNRKVVAWAKQHGIHITSYMTLAYGKALKDEVIARIAAKHNATPAQVILAWAMGEGYSVIPSSTKRKNLESNLKAQNLQLDAEDKKAIAALDCNDRLVSPEGLAPEWD
Regarding B10, in series [1] (setting [7]), the Km was determined as 8.20 mM and the kcat/Km worked out at 2.06 mM⁻¹ s⁻¹.

B11: Klebsiella pneumoniae BudC (Diacetyl reductase [(S)-acetoin forming], Uniprot Q48436), SEQ ID NO: 113 (Klebsiella pneumoniae) (protein)
chain: MKKVALVTGAGQGIGKAIALRLVKDGFAVAIADYNDATAKAVASEINQAGGRAMAVKVDVSDRDQVFAAVEQARKTLGGFDVIVNNAGVAPSTPIESITPEIVDKVYNINVKGVIWGIQAAVEAFKKEGHGGKIINACSQAGHVGNPELAVYSSSKFAVRGLTQTAARDLAPLGITVNGYCPGIVKTPMWAEIDRQVSEAAGKPLGYGTAEFAKRITLGRLSEPEDVAACVSYLASPDSDYMTGQSLLIDGGMVFN
On to B11, for which, in series [6], the Km turned out to be 74.8 mM and the kcat/Km stood at 4.2 mM⁻¹ s⁻¹.
